What was measured:
Experiment in all cases: purified protein
[1] = system: NC(=O)C1=CN([C@@H]2O[C@H](COP(=O)(O)OP(=O)(O)OC[C@H]3O[C@@H](n4cnc5c(N)ncnc54)[C@H](OP(=O)(O)O)[C@@H]3O)[C@@H](O)[C@H]2O)C=CC1; conditions: 50 mM phosphate buffer pH 8.0, 30°C, co-substrate HSP, FAD
O=C(O)CCC(=O)c1ccc(O)nc1 = conditions: 50 mM phosphate buffer pH 8.0, 30°C, co-substrate NADH, FAD
[2] = system: NC(=O)C1=CN([C@@H]2O[C@H](COP(=O)(O)OP(=O)(O)OC[C@H]3O[C@@H](n4cnc5c(N)ncnc54)[C@H](O)[C@@H]3O)[C@@H](O)[C@H]2O)C=CC1; conditions: 50 mM phosphate buffer pH 8.0, 30°C, co-substrate HSP, FAD

Substance: HSP hydroxylase (6-hydroxy-3-succinoylpyridine hydroxylase) (Agrobacterium tumefaciens)
- Km [1]: 350 ± 40 µM
- Km (O=C(O)CCC(=O)c1ccc(O)nc1): 150 ± 20 µM
- Km [2]: 100 ± 10 µM

From publication PMC4108407, “6-Hydroxy-3-Succinoylpyridine Hydroxylase Catalyzes a Central Step of Nicotine Degradation in Agrobacterium tumefaciens S33” (PLoS ONE, 2014)
